The record followed here is patent US20230212304A1 (BIOSION, published 2023).

What is called Kd is a measure of binding affinity in units of concentration. As a reminder, the koff is the rate constant with which the complex falls apart. The term kon denotes the second-order rate constant of association. A word on the EC50: it is the midpoint of the concentration-response curve.

Changes are numbered by the printed parent chain.

To fix the notation:
T1: recombinant human CTLA4-his protein (Acro biosystems, Cat#CT4-H5229) (human, UniProt P16410 37-162)
T1 construct: bought recombinant protein; not shown: his tag
T1 sequence (looked up): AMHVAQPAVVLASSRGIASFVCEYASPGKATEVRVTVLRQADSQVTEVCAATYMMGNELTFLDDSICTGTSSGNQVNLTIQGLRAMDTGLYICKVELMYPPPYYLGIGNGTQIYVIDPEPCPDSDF

T2: recombinant human CTLA4 protein with human IgG1 Fc tag at the C-terminus (Acro biosystems, Cat#CT4-H5255) (human, UniProt P16410 37-162)
T2 construct: bought protein; also called human CTLA4-Fc; CTLA4-Fc; not shown: human IgG1 Fc tag at the C-terminus
T2 sequence (looked up): T1 sequence (looked up)

B1: huC1D1-V5 (antibody, human IgG4 S228P, kappa, V domains shown)
VH: EVQLVESGGGLVQPGRSLRLSCTASGFTFSDNWMNWVRQAPGKGLEWVAQIRNKPYNYETYYSDSVKGRFTISRDDSKSIVYLQMNSLKTEDTAVYYCTGGMDYWGQGTTVTVSS
VL: DIQMTQSPSSLSASVGDRVTITCGASEIIYGALNWYQQKPGKSPKLLIYGATNLADGVPSRFSGSGSGTDFTLTISSLQPEDVATYYCQKILSPPPWTFGGGTKVEIKR
notes: humanized IgG4/kappa; tested as 293F cell supernatant on Octet; also called hu CTLA4 C1D1-V5
B2: huC1D1-V10 (antibody, human IgG4 S228P, kappa, V domains shown)
VH: B1 VH with V81A
VL: B1 VL with S43V
notes: humanized IgG4/kappa; tested as 293F cell supernatant on Octet; also called hu CTLA4 C1D1-V10
B3: huC1D1-V2 (antibody, human IgG4 S228P, kappa, V domains shown)
VH: B1 VH with V81A
VL: B1 VL with V58M, T69R, F71Y
notes: humanized IgG4/kappa; tested as 293F cell supernatant on Octet; also called hu CTLA4 C1D1-V2
B4: huC1D1-V6 (antibody, human IgG4 S228P, kappa, V domains shown)
VH: B1 VH with V81A
VL: B1 VL
notes: humanized IgG4/kappa; tested as 293F cell supernatant on Octet; also called hu CTLA4 C1D1-V6
B5: huC1D1-V3 (antibody, human IgG4 S228P, kappa, V domains shown)
VH: B1 VH with A49G
VL: B1 VL with V58M, T69R, F71Y
notes: humanized IgG4/kappa; tested as 293F cell supernatant on Octet; also called hu CTLA4 C1D1-V3
B6: huC1D1-V9 (antibody, human IgG4 S228P, kappa, V domains shown)
VH: B1 VH
VL: B1 VL with S43V
notes: humanized IgG4/kappa; tested as 293F cell supernatant on Octet; also called hu CTLA4 C1D1-V9
B7: huC1D1-V7 (antibody, human IgG4 S228P, kappa, V domains shown)
VH: B1 VH with A49G
VL: B1 VL
notes: humanized IgG4/kappa; tested as 293F cell supernatant on Octet; also called hu CTLA4 C1D1-V7
B8: huC1D1-V4 (antibody, human IgG4 S228P, kappa, V domains shown)
VH: B1 VH with A49G, V81A
VL: B1 VL with V58M, T69R, F71Y
notes: humanized IgG4/kappa; tested as 293F cell supernatant on Octet; also called hu CTLA4 C1D1-V4
B9: huC1D1-V1 (antibody, human IgG4 S228P, kappa, V domains shown)
VH: B1 VH
VL: B1 VL with V58M, T69R, F71Y
notes: humanized IgG4/kappa; tested as 293F cell supernatant on Octet; also called huCTLA4 C1D1-V1
B10: huC1D1-V11 (antibody, human IgG4 S228P, kappa, V domains shown)
VH: B1 VH with A49G
VL: B1 VL with S43V
notes: humanized IgG4/kappa; tested as 293F cell supernatant on Octet; also called hu CTLA4 C1D1-V11
B11: huC1D1-V12 (antibody, human IgG4 S228P, kappa, V domains shown)
VH: B1 VH with A49G, V81A
VL: B1 VL with S43V
notes: humanized IgG4/kappa; tested as 293F cell supernatant on Octet; also called hu CTLA4 C1D1-V12; huC1D1-VI2
B12: huD1D5-V7 (antibody, human IgG4 S228P, kappa, V domains shown)
VH: EVQLVESGGGLVKPGGSLRLSCAASGFTFSDYGMAWVRQAPGKGLEWVAFISNLAYSVYYADTETGRFTISRDDAKNSLYLQMNSLRAEDTAVYYCARSGLPYAMDYWGQGTTVTVSS
VL: DIQMTQSPSSLSASVGDRVTITCRASQDISNYLNWYQQKPGKVPKLLIYYISRLHSGVPSRFSGSGSGTDFTLTISSLQPEDVATYFCQQGRMLPWTFGGGTKVEIKR
notes: humanized IgG4/kappa; tested as 293F cell supernatant on Octet; also called hu CTLA4 D1D5-V7
B13: huD1D5-V5 (antibody, human IgG4 S228P, kappa, V domains shown)
VH: B12 VH with L45P
VL: B12 VL
notes: humanized IgG4/kappa; tested as 293F cell supernatant on Octet; also called hu CTLA4 DID5-V5
B14: huD1D5-V2 (antibody, human IgG4 S228P, kappa, V domains shown)
VH: B12 VH with D74N
VL: B12 VL with V43T, P44V
notes: humanized IgG4/kappa; tested as 293F cell supernatant on Octet; also called hu CTLA4 D1D5-V2
B15: huD1D5-V12 (antibody, human IgG4 S228P, kappa, V domains shown)
VH: B12 VH with A49S, D74N
VL: B12 VL with F87Y
notes: humanized IgG4/kappa; tested as 293F cell supernatant on Octet; also called hu CTLA4 D1D5-V12
B16: huD1D5-V6 (antibody, human IgG4 S228P, kappa, V domains shown)
VH: B12 VH with D74N
VL: B12 VL
notes: humanized IgG4/kappa; tested as 293F cell supernatant on Octet; also called hu CTLA4 D1D5-V6
B17: huD1D5-V4 (antibody, human IgG4 S228P, kappa, V domains shown)
VH: B12 VH with A49S, D74N
VL: B12 VL with V43T, P44V
notes: humanized IgG4/kappa; tested as 293F cell supernatant on Octet; also called hu CTLA4 D1D5-V4
B18: huD1D5-V10 (antibody, human IgG4 S228P, kappa, V domains shown)
VH: B12 VH with D74N
VL: B12 VL with F87Y
notes: humanized IgG4/kappa; tested as 293F cell supernatant on Octet; also called hu CTLA4 D1D5-V10
B19: huD1D5-V11 (antibody, human IgG4 S228P, kappa, V domains shown)
VH: B12 VH
VL: B12 VL with F87Y
notes: humanized IgG4/kappa; tested as 293F cell supernatant on Octet; also called hu CTLA4 D1D5-V11
B20: huD1D5-V8 (antibody, human IgG4 S228P, kappa, V domains shown)
VH: B12 VH with A49S, D74N
VL: B12 VL
notes: humanized IgG4/kappa; tested as 293F cell supernatant on Octet; also called hu CTLA4 D1D5-V8
B21: huD1D5-V1 (antibody, human IgG4 S228P, kappa, V domains shown)
VH: B12 VH with L45P
VL: B12 VL with V43T, P44V
notes: humanized IgG4/kappa; tested as 293F cell supernatant on Octet; also called huCTLA4 D1D5-V1
B22: huD1D5-V3 (antibody, human IgG4 S228P, kappa, V domains shown)
VH: B12 VH
VL: B12 VL with V43T, P44V
notes: humanized IgG4/kappa; tested as 293F cell supernatant on Octet; also called hu CTLA4 D1D5-V3
B23: chimeric D1B8 anti-CTLA4 antibody (antibody, human IgG4 S228P, kappa, V domains shown)
VH: QIQLQQSGPELVKPGASVKISCKASGYTFTDYYINWVKQRPGQGLEWIGWIYPGNNNTRYNEKFKGKATLTIDTSSSTAFMHLSSLTSEDSAVYFCARYYFDYWGQGTTLTVSS
VL: DIQMTQSPSSLSASLGERISLTCRASQEITGYLSWLQQKPDGTIKRLIYAASTLDSGVPQRFSGSRSGSDYSLTISSLESEDFADYYCLQYASYPRTFGGGTKLEIKR
notes: mouse variable domains on human IgG4/kappa

The first test deals with T1, recombinant human CTLA4-his protein …. As to the kind of experiment: BLI, Octet; antibody from cell supernatant on AHC sensor, CTLA4-his as analyte. As to the method: Briefly, AHC biosensors (anti-human IgG Fc capture, from ForteBio) were presoaked with 10 mM glycine (pH 1.5) for 3 seconds, and then dipped in a well with running buffer (0.5% w/v BSA in PBST) for 3 seconds, the soaking and dipping steps were repeated for three times. […] A new baseline was run for 180 seconds in another well with running buffer. […] Finally, sensors were presoaked with 10 mM glycine (pH 1.5) for 3 seconds, and then were dipped in a well with running buffer for 3 seconds, the soaking and dipping steps repeated for three times. The association and dissociation curves were fit to a 1:1 Langmuir binding model using ForteBio Data Analysis 8.1.
On the technique in general: In BLI a coated tip is dipped into the sample, and binding shifts an interference pattern.
For B1, the dissociation constant Kd is 2.08 nM, the off-rate constant (koff) is 0.000476 s⁻¹ and the kon worked out at 229000 M⁻¹ s⁻¹.

On to B2, for which the dissociation constant (Kd) was 0.943 nM, the off-rate (koff) was 0.000304 s⁻¹ and the kon was 322000 M⁻¹ s⁻¹.

For the molecule B3, the dissociation constant (Kd) was determined as 0.559 nM, the dissociation rate constant (koff) turned out to be 0.000149 s⁻¹ and the kon came out at 267000 M⁻¹ s⁻¹.

Consider B4, for which the dissociation constant (Kd) is 0.821 nM, the koff came out at 0.000287 s⁻¹ and the on-rate (kon) is 349000 M⁻¹ s⁻¹.

For B5, the Kd amounted to 1.16 nM, the koff came out at 0.000259 s⁻¹ and the kon was 224000 M⁻¹ s⁻¹.

In the case of B6, the Kd was 0.736 nM, the dissociation rate constant (koff) stood at 0.000228 s⁻¹ and the kon was determined as 310000 M⁻¹ s⁻¹.

Regarding B7, the dissociation constant (Kd) was determined as 0.362 nM, the dissociation rate constant (koff) came to 0.000169 s⁻¹ and the kon came to 466000 M⁻¹ s⁻¹.

Regarding B8, the Kd was 0.952 nM, the koff came to 0.000229 s⁻¹ and the on-rate (kon) was found to be 240000 M⁻¹ s⁻¹.

Turning to B9, the Kd turned out to be 0.184 nM, the koff was found to be 4.61e-05 s⁻¹ and the on-rate (kon) is 250000 M⁻¹ s⁻¹.

For B10, the Kd is 1.25 nM, the koff worked out at 0.000457 s⁻¹ and the kon was 365000 M⁻¹ s⁻¹.

In the case of B11, the Kd was found to be 0.995 nM, the off-rate constant (koff) came to 0.000304 s⁻¹ and the kon stood at 306000 M⁻¹ s⁻¹.

For B12, the Kd came to 10.2 nM, the koff turned out to be 0.000857 s⁻¹ and the on-rate constant (kon) worked out at 83900 M⁻¹ s⁻¹.

With B13, the Kd stood at 1.73 nM, the koff turned out to be 0.00018 s⁻¹ and the association rate constant (kon) is 104000 M⁻¹ s⁻¹.

B14: the dissociation constant (Kd) turned out to be 0.72 nM, the koff worked out at 6.25e-05 s⁻¹ and the kon was 86800 M⁻¹ s⁻¹.

With B15, the Kd turned out to be 37.4 nM, the koff came out at 0.00133 s⁻¹ and the on-rate constant (kon) was determined as 35500 M⁻¹ s⁻¹.

For the molecule B16, the Kd was determined as 25.8 nM, the koff was determined as 0.00157 s⁻¹ and the kon was 60900 M⁻¹ s⁻¹.

As for B17, the Kd amounted to 4.36 nM, the off-rate constant (koff) was determined as 0.000408 s⁻¹ and the kon was determined as 93500 M⁻¹ s⁻¹.

With B18, the Kd was 33 nM, the koff came out at 0.00163 s⁻¹ and the association rate constant (kon) was 49300 M⁻¹ s⁻¹.

Consider B19, for which the Kd stood at 6.94 nM, the off-rate constant (koff) was determined as 0.000538 s⁻¹ and the kon is 77500 M⁻¹ s⁻¹.

As for B20, the dissociation constant (Kd) was 68.1 nM, the koff came out at 0.00196 s⁻¹ and the association rate constant (kon) amounted to 28800 M⁻¹ s⁻¹.

In the case of B21, the Kd was under 0.001 nM, the off-rate (koff) was under 1e-07 s⁻¹ and the on-rate constant (kon) was found to be 82000 M⁻¹ s⁻¹.

Regarding B22, the dissociation constant (Kd) is under 0.001 nM, the koff was under 1e-07 s⁻¹ and the kon came to 115000 M⁻¹ s⁻¹.

Another test deals with T2, recombinant human CTLA4 protein with …. As to the kind of experiment: capture ELISA: antibody captured on coated plate (anti-human IgG Fc for the chimeric antibodies), biotin human CTLA4-Fc, streptavidin-HRP, OD(450-630). As to the method: Plates were washed once with wash buffer (PBS+0.05% v/v Tween-20, PBST) and then blocked with 200 µl/well blocking buffer (PBST with 5% w/v non-fatty milk) for 2 hours at 37° C. […] After a final wash, plates were incubated with 100 µl/well substrate TMB (Innoreagents, Cat#TMB-S-002). The reaction was stopped in 15 minutes at room temperature with 50 µl/well 1M H₂SO₄, and the absorbance of the each well was read on a microplate reader using dual wavelength mode with 450 nm for TMB and 630 nm as the reference wavelength, then the OD (450-630) values were plotted against antibody concentration. Data was analyzed using Graphpad Prism software and EC₅₀ values were reported.
For the capture ELISA, AffiniPure Goat Anti-Human IgG, Fcy fragment specific (Jackson Immuno Research, Cat#109-005-008) was used instead of AffiniPure Goat Anti-Mouse IgG, F(ab′)₂ fragment specific, 100 µl/well.
A general note: In an ELISA, binding on a coated surface is turned into a signal by an enzyme label.
As to B23, the concentration for a half-maximal effect (EC50) stood at 2.84 nM.
